Data taken from PMC5247705.

How the values were obtained:
[1] = target: human Toll-like receptor 5 on HEK293^TLR5 reporter cells (human) (UniProt O60602)
[2] = target: rTLR5^N14, tag-free (zebrafish TLR5 LRRNT-LRR14 fused to the C-terminal fragment of hagfish variable lymphocyte receptor) (zebrafish | hagfish) (UniProt B3DIN1); assay: native gel or EMSA; purified flagellin and rTLR5^N14 incubated at 18 °C for 30 minutes; native PAGE on 6% polyacrylamide gels at room temperature for 1.5 hours at 100 V
[3] = target: rTLR5^N14, tag-free (zebrafish TLR5 LRRNT-LRR14 fused to the C-terminal fragment of hagfish variable lymphocyte receptor) (zebrafish | hagfish) (UniProt B3DIN1); assay: SEC; purified flagellin and rTLR5^N14 incubated at 18 °C for 30 minutes; Superdex 200 10/300 column; elution monitored at 222 nm
[4] = target: rTLR5^N14-Avitag, biotinylated (zebrafish | hagfish) (UniProt B3DIN1); assay: ELISA; competitive binding assay: 96-well plates coated with 0.2 μg/ml bsflagellin in PBS; serially diluted soluble flagellin and 0.02 μg/ml biotinylated rTLR5^N14-Avitag incubated together for 48 hours at 4 °C in 1% BSA in PBS-T; detected with HRP-streptavidin
[5] = target: human Toll-like receptor 5 on HEK293^TLR5 reporter cells (human) (UniProt O60602); remark: listed apart in the source
[6] = target: human Toll-like receptor 5 on HEK293^TLR5 reporter cells (human) (UniProt O60602); remark: listed apart in the source
[7] = target: rTLR5^N14, tag-free (zebrafish TLR5 LRRNT-LRR14 fused to the C-terminal fragment of hagfish variable lymphocyte receptor) (zebrafish | hagfish) (UniProt B3DIN1); assay: crystal structure; bsflagellin^cent-rTLR5^N14 complex, 2.1 Å; crystallised in 17.5% (w/v) PEG 300, 50 mM sodium acetate, pH 4.4 at 18 °C

UniProt O60602, sequence (O60602 21-858): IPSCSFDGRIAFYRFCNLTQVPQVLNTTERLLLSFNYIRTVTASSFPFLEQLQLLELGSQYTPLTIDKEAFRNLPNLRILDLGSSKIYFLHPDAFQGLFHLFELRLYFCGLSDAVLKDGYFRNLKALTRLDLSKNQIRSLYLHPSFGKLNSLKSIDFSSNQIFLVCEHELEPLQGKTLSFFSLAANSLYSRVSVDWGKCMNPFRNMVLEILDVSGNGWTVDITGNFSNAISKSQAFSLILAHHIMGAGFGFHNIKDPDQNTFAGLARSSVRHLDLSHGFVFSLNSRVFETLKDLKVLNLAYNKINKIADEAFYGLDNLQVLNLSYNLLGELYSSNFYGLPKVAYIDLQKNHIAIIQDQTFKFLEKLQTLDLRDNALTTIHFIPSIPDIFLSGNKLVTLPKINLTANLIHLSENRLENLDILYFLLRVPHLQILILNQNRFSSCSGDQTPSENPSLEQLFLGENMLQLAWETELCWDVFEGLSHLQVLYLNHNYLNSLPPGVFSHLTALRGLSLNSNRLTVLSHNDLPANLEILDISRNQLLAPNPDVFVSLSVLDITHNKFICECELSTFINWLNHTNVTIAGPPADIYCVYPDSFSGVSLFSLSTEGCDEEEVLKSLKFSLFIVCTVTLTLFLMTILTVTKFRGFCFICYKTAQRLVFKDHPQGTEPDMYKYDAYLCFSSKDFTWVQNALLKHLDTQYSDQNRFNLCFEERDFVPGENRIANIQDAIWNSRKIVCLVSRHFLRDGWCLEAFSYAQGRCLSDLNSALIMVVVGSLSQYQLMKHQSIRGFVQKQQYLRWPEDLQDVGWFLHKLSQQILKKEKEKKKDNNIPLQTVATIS

Bacillus subtilis flagellin (Hag), full-length wild type (from UniProt P02968 1-304) (natural protein)
EC50 (pM) for TLR5 signaling; NF-κB-inducible SEAP reporter in HEK293^TLR5 cells [1]: 1.18 pM | stoichiometry N [2]: 1 | stoichiometry N [3]: 1 | IC50 [4]: 0.204 nM

Escherichia coli flagellin, full length (from UniProt P04949 1-498) (natural protein)
EC50 (pM) for TLR5 signaling; NF-κB-inducible SEAP reporter in HEK293^TLR5 cells [1]: 1.13 pM | IC50 [4]: 0.517 nM

Pseudomonas aeruginosa flagellin, full length (from UniProt P21184 1-394) (natural protein)
EC50 (pM) for TLR5 signaling; NF-κB-inducible SEAP reporter in HEK293^TLR5 cells [1]: 1.68 pM | IC50 [4]: 0.673 nM

Salmonella enterica subspecies enterica serovar Dublin flagellin, full length (from UniProt Q06971 1-505) (natural protein)
EC50 (pM) for TLR5 signaling; NF-κB-inducible SEAP reporter in HEK293^TLR5 cells [1]: 0.57 pM | IC50 [4]: 0.289 nM

Shigella flexneri flagellin, full length (from UniProt Q08860 1-550) (natural protein)
EC50 (pM) for TLR5 signaling; NF-κB-inducible SEAP reporter in HEK293^TLR5 cells [1]: 1.57 pM | IC50 [4]: 0.414 nM

bsflagellin E114A mutant (from UniProt P02968 1-304) (natural protein)
TLR5 activity in the HEK293^TLR5 reporter cell assay, fold reduction against bsflagellin^WT [5]: 6 fold

bsflagellin L93A mutant (from UniProt P02968 1-304) (natural protein)
TLR5 activity in the HEK293^TLR5 reporter cell assay, fold reduction against bsflagellin^WT [5]: 2 fold

bsflagellin R89A mutant (from UniProt P02968 1-304) (natural protein)
HEK293^TLR5 reporter cell activity, fold change of EC50 against bsflagellin^WT [6]: 49 fold | fold lower activity in the competitive rTLR5^N14-binding assay [4]: 10 fold

central region of bsflagellin (bsflagellin^cent; D1 residues 54-230) (from UniProt P02968 54-230) (domain or fragment)
stoichiometry N [7]: 1
